B1: SEC23A (natural protein)
chain: MTTYLEFIQQNEERDGVRFSWNVWPSSRLEATRMVVPVAALFTPLKERPDLPPIQYEPVLCSRTTCRAVLNPLCQVDYRAKLWACNFCYQRNQFPPSYAGISELNQPAELLPQFSSIEYVVLRGPQMPLIFLYVVDTCMEDEDLQALKESMQMSLSLLPPTALVGLITFGRMVQVHELGCEGISKSYVFRGTKDLSAKQLQEMLGLSKVPLTQATRGPQVQQPPPSNRFLQPVQKIDMNLTDLLGELQRDPWPVPQGKRPLRSSGVALSIAVGLLECTFPNTGARIMMFIGGPATQGPGMVVGDELKTPIRSWHDIDKDNAKYVKKGTKHFEALANRAATTGHVIDIYACALDQTGLLEMKCCPNLTGGYMVMGDSFNTSLFKQTFQRVFTKDMHGQFKMGFGGTLEIKTSREIKISGAIGPCVSLNSKGPCVSENEIGTGGTCQWKICGLSPTTTLAIYFEVVNQHNAPIPQGGRGAIQFVTQYQHSSGQRRIRVTTIARNWADAQTQIQNIAASFDQEAAAILMARLAIYRAETEEGPDVLRWLDRQLIRLCQKFGEYHKDDPSSFRFSETFSLYPQFMFHLRRSSFLQVFNNSPDESSYYRHHFMRQDLTQSLIMIQPILYAYSFSGPPEPVLLDSSSILADRILLMDTFFQILIYHGETIAQWRKSGYQDMPEYENFRHLLQAPVDDAQEILHSRFPMPRYIDTEHGGSQARFLLSKVNPSQTHNNMYAWGQESGAPILTDDVSLQVFMDHLKKLAVSSAA
B2: SEC23B (natural protein)
chain: MATYLEFIQQNEERDGVRFSWNVWPSSRLEATRMVVPLACLLTPLKERPDLPPVQYEPVLCSRPTCKAVLNPLCQVDYRAKLWACNFCFQRNQFPPAYGGISEVNQPAELMPQFSTIEYVIQRGAQSPLIFLYVVDTCLEEDDLQALKESLQMSLSLLPPDALVGLITFGRMVQVHELSCEGISKSYVFRGTKDLTAKQIQDMLGLTKPAMPMQQARPAQPQEHPFASSRFLQPVHKIDMNLTDLLGELQRDPWPVTQGKRPLRSTGVALSIAVGLLEGTFPNTGARIMLFTGGPPTQGPGMVVGDELKIPIRSWHDIEKDNARFMKKATKHYEMLANRTAANGHCIDIYACALDQTGLLEMKCCANLTGGYMVMGDSFNTSLFKQTFQRIFTKDFNGDFRMAFGATLDVKTSRELKIAGAIGPCVSLNVKGPCVSENELGVGGTSQWKICGLDPTSTLGIYFEVVNQHNTPIPQGGRGAIQFVTHYQHSSTQRRIRVTTIARNWADVQSQLRHIEAAFDQEAAAVLMARLGVFRAESEEGPDVLRWLDRQLIRLCQKFGQYNKEDPTSFRLSDSFSLYPQFMFHLRRSPFLQVFNNSPDESSYYRHHFARQDLTQSLIMIQPILYSYSFHGPPEPVLLDSSSILADRILLMDTFFQIVIYLGETIAQWRKAGYQDMPEYENFKHLLQAPLDDAQEILQARFPMPRYINTEHGGSQARFLLSKVNPSQTHNNLYAWGQETGAPILTDDVSLQVFMDHLKKLAVSSAC

Biological target: SAR1B (human, UniProt Q9Y6B6 1-198)
Sequence (Q9Y6B6 whole entry): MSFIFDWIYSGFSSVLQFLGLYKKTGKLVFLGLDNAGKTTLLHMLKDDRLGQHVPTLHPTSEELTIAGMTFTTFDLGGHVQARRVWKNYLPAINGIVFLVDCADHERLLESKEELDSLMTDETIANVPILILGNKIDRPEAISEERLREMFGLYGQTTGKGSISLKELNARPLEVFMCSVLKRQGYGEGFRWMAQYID
Assay: liposome flotation

Binder | fold binding relative to SAR1A, with SEC31A-af added [fold] | fold recruitment relative to SAR1A [fold]
B1 | ~5 | ~5
B2 | ~5 | ~5

Source: paper doi:10.1101/2020.02.09.940833 (bioRxiv, 2020)
